According to patent US9266964:

B1: M206-A06 (Fab, V domains shown)
VH: EVQLLESGGGLVQPGGSLRLSCAASGFTFSNYMMGWVRQAPGKGLQWVSSISPSGGLTKYADSVKGRFTISRDNSKNTLYLQMNSLRAEDTAVYYCARVARGIAARSRTSYFDYWGQGTLVTVSS
VL: DIQMTQSPGTLSLSPGERATLSCRTSQFVNSNYLAWYQQTPGQAPRLLIYGASSRATGIPDRFSGTGYGTDFTLTISRLEPEDYGTYYCQQSSRTPWTFGQGTRVEIK
B2: M208-B01 (Fab, V domains shown)
VH: EVQLLESGGGLVQPGGSLRLSCAASGFTFSHYLMTWVRQAPGKGLEWVSYISPSGGHTIYADSVKGRFTISRDNSKNTLYLQMNSLRAEDTAVYYCARVARGIAARSRTSFFDQWGQGTLVTVSS
VL: DIQMTQSPGTLSLSPGERATLSCRTSQFVNSNYLAWYQQTPGQAPRLLIYGASSRATGIPDRFSGTGYGTDFTLTISRLEPEDYGTYYCQQSSRTPWTFGQGTRVEIK
B3: M207-A04 (Fab, V domains shown)
VH: EVQLLESGGGLVQPGGSLRLSCAASGFTFSHYLMTWVRQAPGKGLEWVSYISPSGGHTIYADSVKGRFTISRDNSKNTLYLQMNSLRAEDTAVYYCARVARGIAARSRTRSFDYWGQGTLVTVSS
VL: DIQMTQSPGTLSLSPGERATLSCRTSQFVNSNYLAWYQQTPGQAPRLLIYGASSRATGIPDRFSGTGYGTDFTLTISRLEPEDYGTYYCQQSSRTPWTFGQGTRVEIK
B4: M6-G05 (Fab, V domains shown)
VH: EVQLLESGGGLVQPGGSLRLSCAASGFTFSRYRMVWVRQAPGKGLEWVSSIYPSGGMTAYADSVKGRFTISRDNSKNTLYLQMNSLRAEDTAVYYCARDAVGIGDAFDIWGQGTMVTVSS
VL: DIQMTQSPSSLSASVGDRVTITCRASQSISTYLNWYQLKPGKAPKLLIYNAFSMERGVPSTISGSGSGTDFTLTISSLQPEDFATYYCQQSYTTPTTFGQGTKVEIK
notes: Fab fragment (E. coli TG1); printed HC runs into the start of CH1
B5: M6-D08 (Fab, V domains shown)
VH: EVQLLESGGGLVQPGGSLRLSCAASGFTFSRYHMVWVRQAPGKGLEWVSSISPSGGWTNYADSVKGRFTISRDNSKNTLYLQMNSLRAEDTAMYYCAREMATIAGQFDPWGQGTLVTVSS
VL: DIQMTQSPSSLSASVGDRVTITCRASQSISSYLNWYQQKPGKAPKLLIYGASSLQSGVPSRFSGSGSGTDFTLTISSLQPEDSATYYCQQSYTRWTFGQGTKVEIK
notes: Fab fragment (E. coli TG1); printed HC runs into the start of CH1; The LC is printed with an amber codon 'q' (WYqQK), written here as Q
B6: M77-H04 (Fab, V domains shown)
VH: EVQLLESGGGLVQPGGSLRLSCAASGFTFSYYTMIWVRQAPGKGLEWVSGIRSSGGGTRYADSVKGRFTISRDNSKNTLYLQMNSLRAEDTAVYYCAKDGSRYSYGSIYYYYGMDAWGQGTTVTVSS
VL: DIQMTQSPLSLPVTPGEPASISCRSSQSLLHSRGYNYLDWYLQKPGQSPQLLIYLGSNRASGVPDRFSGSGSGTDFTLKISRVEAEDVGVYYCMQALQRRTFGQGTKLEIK
notes: as for B4
B7: M8-C04 (Fab, V domains shown)
VH: EVQLLESGGGLVQPGGSLRLSCAASGFTFSYYPMQWVRQAPGKGLEWVSYIYPSGGLTSYADSVKGRFTISRDNSKNTLYLQMNSLRAEDTAVYYCARLFYGSGSVGFEYWGQGTLVTVSS
VL: QSALTQPPSVSVSPGQTASITCSGDKLGDKYTSWHQQKPGQSPVLVIYQDSKRPSGIPERFSGSNSGNTATLTISGTQAMDEADYYCQAWDSSTVFGGGTRLTVL
notes: as for B4
B8: M6-D03 (Fab, V domains shown)
VH: EVQLLESGGGLVQPGGSLRLSCAASGFTFSKYFMGWVRQAPGKGLEWVSVIGSSGGWTSYADSVKGRFTISRDNSKNTLYLQMNSLRAEDTAVYYCARVSTAVADNDYWGQGTLVTVSS
VL: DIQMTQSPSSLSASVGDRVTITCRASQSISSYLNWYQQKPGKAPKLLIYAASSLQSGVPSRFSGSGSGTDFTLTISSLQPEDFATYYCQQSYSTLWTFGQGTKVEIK
notes: as for B4
B9: M8-G09 (Fab, V domains shown)
VH: EVQLLESGGGLVQPGGSLRLSCAASGFTFSLYEMLWVRQAPGKGLEWVSVIYPSGGYTDYADSVKGRFTISRDNSKNTLYLQMNSLRAEDMAVYYCARSFSGFGEIDYWGQGTLVTVSS
VL: DIQMTQSPSSLSASVGDTVTITCRASQGVSYYLAWFQQKPGKAPKSLIYGASSLQSGVPSKFSGSGSGTVFTLTISSLQPDDFATYYCQQYNTYPPTFGQGTRLDIK
notes: as for B4
B10: M8-E06 (Fab, V domains shown)
VH: EVQLLESGGGLVQPGGSLRLSCAASGFTFSHYFMTWVRQAPGKGLEWVSSIVPSGGMTQYADSVKGRFTISRDNSKNTLYLQMNSLRAEDTAVYYCARDSYSSSWFDIWGQGTMVTVSS
VL: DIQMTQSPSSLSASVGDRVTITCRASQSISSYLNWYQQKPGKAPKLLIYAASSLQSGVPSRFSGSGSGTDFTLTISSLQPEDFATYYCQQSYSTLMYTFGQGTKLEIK
notes: as for B4
B11: M77-C07 (Fab, V domains shown)
VH: EVQLLESGGGLVQPGGSLRLSCAASGFTFSLYIMGWVRQAPGKGLEWVSGIYPSGGFTMYADSVKGRFTISRDNSKNTLYLQMNSLRAEDTAVYYCARESSGVAAPDYWGQGTLVTVSS
VL: DIQMTQSPSTLSASVGDRVTITCRASQNISSYLNWYQQKPGKAPKLLIYAASSLQSGVPSRFSGSGSGTDFTLTISSLQPEDFATYSCQQSYSTPRTFGQGTKVEIK
notes: as for B4
B12: M6-A06 (Fab, V domains shown)
VH: EVQLLESGGGLVQPGGSLRLSCAASGFTFSLYQMTWVRQAPGKGLEWVSGIWPSGGFTDYADSVKGRFTISRDNSKNTLYLQMNSLRAEDTAVYYCARVSTAVADNDYWGQGTLVTVSS
VL: DIQMTQSPSSLSASVGDSVTISCRASQSISMYLNWYQHKPGKAPKLLIYGTSSLQSGVPSRFSGSGPGGTDFTLTISSLQPEDFATYYCQQSYSAPWTFGQGTKVEIK
notes: as for B4
B13: M6-A08 (Fab, V domains shown)
VH: EVQLLESGGGLVQPGGSLRLSCAASGFTFSPYPMQWVRQAPGKGLEWVSSISSSGGMTEYADSVKGRFTISRDNSKNTLYLQMNSLRAEDTAVYYCARDDYGGKGGAFDIWGQGTMVTVSS
VL: DIQMTQSPSSLSASVGDRVTITCRASQRISFYLNWFQQKPGKAPNLLIYGASSLQSGVPSRFSGSGSGTDFTLTISSLQPKDFGTYYCQQTFSTPNTFGQGTKLEIK
notes: as for B4
B14: M8-H04 (Fab, V domains shown)
VH: EVQLLESGGGLVQPGGSLRLSCAASGFTFSGYWMGWVRQAPGKGLEWVSSISSSGGWTQYADSVKGRFTISRDNSKNTLYLQMNSLRAEDTATYYCARDDEIAAGGAFDIWGQGAMVTVSS
VL: DIQMTQSPSSLSASIGDRVTITCRASQYISTYLNWYEQKPGKAPKLLIYGTSSLQSGVPSRFSGSGSGTEFSLTISSLQPEDFATYYCQQSFTTPFTFGQGTKLEIK
notes: as for B4
B15: M9-A03 (Fab, V domains shown)
VH: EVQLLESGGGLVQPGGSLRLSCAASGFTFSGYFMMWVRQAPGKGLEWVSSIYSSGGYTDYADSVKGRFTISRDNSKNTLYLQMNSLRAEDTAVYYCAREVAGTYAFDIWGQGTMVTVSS
VL: DIQMTQSPSSLSASLGDRVTITCRASQNIDIYLNWYQQTPGKAPKLLIYGAYNLQSGVPSRFSGSGSGTDFTLTISSLQPEDFGTYYCQQSYGTPVFGQGTKLEIK
notes: as for B4
B16: M8-D05 (Fab, V domains shown)
VH: EVQLLESGGGLVQPGGSLRLSCAASGFTFSLYNMNWVRQAPGKGLEWVSSISPSGGFTDYADSVKGRFTISRDNSKNTLYLQMNSLRAEDTAVYYCARDLDLGILDYWGQGTLVTVSS
VL: DIQMTQSPSFVSASVGDRVTITCRASQDISSWLVWYQQKPGKGPKLLIYDASNLQSGVPSRFSGGGSGTHFTLTISSLQPEDFATYYCQQADGFPLTFGGGTKVEMK
notes: as for B4

Each binder was assayed against human plasma kallikrein (human, UniProt P03952 20-390; P03952 391-638) (assay: cell-based or functional assay).
Target sequence in this assay (P03952 20-390, chain 1 of 2): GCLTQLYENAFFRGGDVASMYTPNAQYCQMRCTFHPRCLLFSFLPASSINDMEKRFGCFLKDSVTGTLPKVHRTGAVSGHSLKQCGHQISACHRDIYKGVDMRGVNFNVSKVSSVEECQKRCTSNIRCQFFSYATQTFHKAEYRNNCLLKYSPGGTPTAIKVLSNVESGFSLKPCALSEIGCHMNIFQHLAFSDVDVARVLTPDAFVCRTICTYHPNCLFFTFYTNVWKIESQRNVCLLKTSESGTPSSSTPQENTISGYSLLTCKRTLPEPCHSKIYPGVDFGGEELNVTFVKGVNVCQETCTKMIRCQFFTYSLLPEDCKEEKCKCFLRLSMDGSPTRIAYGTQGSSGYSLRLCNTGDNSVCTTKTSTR
Target sequence in this assay (P03952 391-638, chain 2 of 2): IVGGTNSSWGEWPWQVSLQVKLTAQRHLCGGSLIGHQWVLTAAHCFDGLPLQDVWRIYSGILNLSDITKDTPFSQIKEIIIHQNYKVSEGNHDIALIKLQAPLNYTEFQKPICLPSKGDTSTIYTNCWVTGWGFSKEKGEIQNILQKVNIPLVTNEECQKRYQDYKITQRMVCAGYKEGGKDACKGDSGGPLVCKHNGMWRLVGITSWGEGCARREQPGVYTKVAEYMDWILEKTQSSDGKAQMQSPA

Q: B1 was tested. Which “% inhibition at 10 nM” value did it give?
A: 93%

Q: How did the “% inhibition at 10 nM” value turn out when B2 was run?
A: 90.1%

Q: B3 was tested. Which “% inhibition at 10 nM” value did it give?
A: 90.9%

The binders below were run against T1, human plasma kallikrein (human, UniProt P03952 20-390; P03952 391-638) (assay: ELISA; signal on coated biotinylated human plasma kallikrein divided by signal on streptavidin; Fab).
T1 construct: two disulfide-linked chains; also called pKal; human pKal
Source text: Abbreviations used: "T/B" is the ELISA signal obtained using of the target (biotinylated plasma kallikrein) divided by the ELISA signal of the "background" (streptavidin); both of which were coated on microtiter plates. "nd" is not determined. The symbol "q" refers to the amber suppressible stop codon (TAG), which is translated as glutamine (Q) in strains of E. coli such as the TG1 cells that were used to express the Fab fragments.
T1 sequence (P03952 20-390, chain 1 of 2): as the sequence (P03952 20-390, chain 1 of 2) above
T1 sequence (P03952 391-638, chain 2 of 2): as the sequence (P03952 391-638, chain 2 of 2) above

Q: With B4 as the binder, how does the “Human pKal ELISA (T/B)” value read?
A: 18.5 T/B (target signal / background signal)

Q: Which “Human pKal ELISA (T/B)” value does the source give for B5 here?
A: 16 T/B (target signal / background signal)

Q: Which “Human pKal ELISA (T/B)” value does the source give for B6 here?
A: 7.6 T/B (target signal / background signal)

Q: Which “Human pKal ELISA (T/B)” value does the source give for B7 here?
A: 44.7 T/B (target signal / background signal)

Q: For B8, which “Human pKal ELISA (T/B)” value is on record?
A: 15.5 T/B (target signal / background signal)

Q: Which “Human pKal ELISA (T/B)” value does the source give for B9 here?
A: 28.2 T/B (target signal / background signal)

Q: With B10 as the binder, how does the “Human pKal ELISA (T/B)” value read?
A: 8.8 T/B (target signal / background signal)

Q: With B11 as the binder, how does the “Human pKal ELISA (T/B)” value read?
A: 16.1 T/B (target signal / background signal)

Q: How did the “Human pKal ELISA (T/B)” value turn out when B12 was run?
A: 11.7 T/B (target signal / background signal)

Q: For B13, which “Human pKal ELISA (T/B)” value is on record?
A: 23.4 T/B (target signal / background signal)

Q: Which “Human pKal ELISA (T/B)” value does the source give for B14 here?
A: 3.3 T/B (target signal / background signal)

Q: How did the “Human pKal ELISA (T/B)” value turn out when B15 was run?
A: 14.4 T/B (target signal / background signal)

Q: Which “Human pKal ELISA (T/B)” value does the source give for B16 here?
A: 11.9 T/B (target signal / background signal)
